Results reported in patent US9322000B2, “Methanol dehydrogenase enzymes from Bacillus” (Sinvent AS, priority 2012, dated 2016).

B1: Mdh3-MGA3: NAD-dependent methanol dehydrogenase encoded by chromosomal gene mdh3 of B. methanolicus MGA3, SEQ ID NO. 4 (protein)
chain: MKNTQSAFYMPSVNLFGAGSVNEVGTRLAGLGVKKALLVTDAGLHSLGLSEKIAGIIREAGVEVAIFPKAEPNPTDKNVAEGLEAYNAENCDSIVTLGGGSSHDAGKAIALVAANGGTIHDYEGVDVSKKPMVPLIAINTTAGTGSELTKFTIITDTERKVKMAIVDKHVTPTLSINDPELMVGMPPSLTAATGLDALTHAIEAYVSTGATPITDALAIQAIKIISKYLPRAVANGKDIEAREQMAFAQSLAGMAFNNAGLGYVHAIAHQLGGFYNFPHGVCNAILLPHVCRFNLISKVERYAEIAAFLGENVDGLSTYEAAEKAIKAIERMARDLNIPKGFKELGAKEEDIETLAKNAMNDACALTNPRKPKLEEVIQIIKNAM
modifications: Bacillus methanolicus MGA3
B2: Mdh-MGA3: previously reported plasmid pBM19-encoded NAD-dependent methanol dehydrogenase of B. methanolicus MGA3, SEQ ID NO. 8 (protein)
chain: MTTNFFIPPASVIGRGAVKEVGTRLKQIGAKKALIVTDAFLHSTGLSEEVAKNIREAGVDVAIFPKAQPDPADTQVHEGVDVFKQENCDSLVSIGGGSSHDTAKAIGLVAANGGRINDYQGVNSVEKPVVPVVAITTTAGTGSETTSLAVITDSARKVKMPVIDEKITPTVAIVDPELMVKKPAGLTIATGMDALSHAIEAYVAKGATPVTDAFAIQAMKLINEYLPKAVANGEDIEAREKMAYAQYMAGVAFNNGGLGLVHSISHQVGGVYKLQHGICNSVNMPHVCAFNLIAKTERFAHIAELLGENVAGLSTAAAAERAIVALERINKSFGIPSGYAEMGVKEEDIELLAKNAYEDVCTQSNPRVPTVQDIAQIIKNAM
modifications: Bacillus methanolicus MGA3
B3: Mdh2-MGA3: NAD-dependent methanol dehydrogenase encoded by chromosomal gene mdh2 of B. methanolicus MGA3, SEQ ID NO. 2 (protein)
chain: MTNTQSAFFMPSVNLFGAGSVNEVGTRLADLGVKKALLVTDAGLHGLGLSEKISSIIRAAGVEVSIFPKAEPNPTDKNVAEGLEAYNAENCDSIVTLGGGSSHDAGKAIALVAANGGKIHDYEGVDVSKEPMVPLIAINTTAGTGSELTKFTIITDTERKVKMAIVDKHVTPTLSINDPELMVGMPPSLTAATGLDALTHAIEAYVSTGATPITDALAIQAIKIISKYLPRAVANGKDIEAREQMAFAQSLAGMAFNNAGLGYVHAIAHQLGGFYNFPHGVCNAVLLPYVCRFNLISKVERYAEIAAFLGENVDGLSTYDAAEKAIKAIERMAKDLNIPKGFKELGAKEEDIETLAKNAMKDACALTNPRKPKLEEVIQIIKNAM
modifications: Bacillus methanolicus MGA3

Legend:
Format in all cases: biochemical
[1] = Methanol dehydrogenase assay of purified recombinant MDH proteins (NADH production at 340 nm); settings: for Vmax, variable substrate Methanol + Act / Vmax, variable substrate Methanol / Km: 45° C., pH 9.5; for Vmax, variable substrate Methanol: absence of Act
Experimental: (§1) Alcohol dehydrogenase activities were measured spectrophotometrically essentially as described previously (Hektor, Kloosterman et al. (2002) Chem 277(49): 46966-46973) and the reaction mixture contained: 100 mM Glycine-KOH pH 9.5 (unless otherwise stated), 5 mM MgSO4, 0.5 mM NAD^+ and 500 mM alcohol (methanol, ethanol, propanol, 1,3-propanediol, or butanol). NAD^+ was substituted with equal concentrations of NADP^+, FMN^+, and FAD^+, when indicated. The reaction mixture for measurements of formaldehyde reductase activity contained: 50 mM Potassium-phosphate buffer pH=6.7, 0.15 mM NADH, 1 mM DTT and 11.6 mM (0.1-116 mM) formaldehyde. The assay components were mixed in the cuvette and pre-warmed to 45° C., unless otherwise stated. The reactions were started by addition of 5-40 μg of the purified MDH proteins, and the production of NADH was monitored at 340 nm for 4 minutes. One unit of MDH activity was defined as the amount of enzyme needed to produce 1 μmol NADH per minute under the conditions described above. Purified Act (0.1-40 μg) or NudF (20 μg) proteins were added to the reaction mixtures as indicated in the text.
(§2) The purified MDH and Act proteins (20 μg) were used in the kinetic experiments performing the methanol dehydrogenase and the formaldehyde dehydrogenase assays essentially as described above. […] For determination of the Km for NAD^+ (Km,NAD+) and Vmax, the methanol concentration was kept constant at a saturating level (500 mM), while the concentration of NAD^+ was varied (5-1000 μM). […] Act (20 μg) was added to the reaction mixtures for determination of Kμ,MεOH and Vmax values in the presence of this activator, as indicated in the text. In general, the slopes of activity versus time were linear in the measured period (data not shown). Km and Vmax values were calculated by using nonlinear regression with the Microsoft Excel solver-tool to fit the measured data to the Michaelis-Menten equation, as described previously (Jakobsen et al., (2009) Appl Environ Microbiol 75(3): 652-661). The values obtained from the regression were then compared to the values obtained from Lineweaver-Burk and Hanes-Woolf plots to ensure that the global minimum, not a local minimum, had been found.

[2] = Formaldehyde reductase assay of purified MDH proteins; settings: 45° C., formaldehyde reductase activity; for Km: read-out: Km, variable substrate Formaldehyde
Experimental: as §1, §2

[3] = In vitro Mdh activity in crude cell extracts of recombinant E. coli; settings: for In vitro activity: expressed in E. coli, crude cell extract; for ranking of Mdh activity on expression in E. coli: in vitro and in vivo
Source text: The genes coding for Mdh and the Mdh activator protein Act were amplified from pET21a-plasmids harboring genes from B. methanolicus strains MGA3 (mdh-MGA3, mdh2-MGA3, mdh3-MGA3 and act-MGA3) and PB1 (mdh-PB1, mdh1-PB1 and mdh2-PB1). The genes were then cloned either into the pSEVA424 plasmid (mdh genes) or in the pSEVA131 plasmid (act gene). For cloning of mdh-MGA3, mdh-PB1, mdh1-PB1 and act-MGA3, EcoRI and HindIII restrictions sites were used, while mdh2-MGA3, mdh2-PB1 and mdh3-MGA3 were cloned by using EcoRI and PstI restriction sites. The resulting expression vectors were transformed into electrocompetent wt E. coli K-12 (BW25113) and into E. coli K-12 (BW25113) with a deleted frmA gene.
Expression Experiments For expression experiments, the cells were cultivated in either Luria-Bertani (LB) medium for in vitro assays or in M9 medium for in vivo assays both containing 20 μg/ml streptomycin for pSEVA424. When Act was co-expressed the medium was supplemented with 100 μg/ml ampicillin. Expression was induced when cells reached OD 0.5 (for in vitro tests) or OD 1 (for in vivo tests) by adding 0.1 mM IPTG (final concentration) for 6 hours. Cells were then harvested by centrifugation. For in vitro assays, crude cell extract was prepared by lysing the cells in a French press following ultracentrifugation. Alternatively, cells were resuspended in M9-medium without glucose for in vivo activity measurements. Enzyme Assays
In vitro measurements of Mdh activity: For determination of Mdh activity in crude cell extracts, the Mdh dependent formation of NADH was monitored at 340 nm. The assays were performed either at 37° C. or 45° C. in prewarmed buffer solutions. The Mdh assay contained 10-20 μg enzyme, 50 mM K2HPO4-buffer, pH7.4, 2.5 mM MgCl and 0.5 mM of NAD^+ (final concentrations). After 5 min of preincubation, the reaction was started with 1 M of methanol (final concentration).

[4] = In vitro methanol dehydrogenase activity in lysates of recombinant B. subtilis 168; settings: for methanol dehydrogenase activity on expression in B. subtilis (in words): 50° C., pH 9.5
Experimental: B. subtilis 168 cells were transformed with the act-MGA3, mdh-MGA3, mdh2-MGA3, and mdh3-MGA3 expression plasmids, and the analogous vectors coexpressing each of the methanol dehydrogenase genes with the act-MGA3 gene. Positive colonies were picked from the plate and the plasmid was isolated and checked by restriction for positive clones. Colonies were picked from plate and grown overnight at 37° C. (250 rpm) and diluted to OD600=0.1 in 20 ml LB containing chloramphenicol (5 μg/ml). After 3 hrs of growth at 37° C. (250 rpm), 500 μl 40% xylose were added to the culture to induce expression. The culture was grown for another 3 hrs and samples of 2 ml were taken. The sample was spun down for 2 min, 11.000×g and the supernatant was removed. The pellet was resuspended in 300 μl Birnboim A for B. subtilis (10 mM Tris-HCl pH 8.0; 20% sucrose; 50 mM NaCl; 0.25 mg/ml lysozyme; protease inhibitor) and incubated at 37° C. for 30 minutes. The samples were stored at −80° C. before use. In addition, we took advantage of recombinant E. coli cells constructed in the project expressing mdh-MGA3, mdh2-MGA3, mdh3-MGA3 and act-MGA3 from the pET21a plasmid in the in vitro assays.
The activities of the Mdh proteins were measured by following the formation of NADH spectrophoto-metrically. The reaction mixture contained: • 100 μl Glycine-KOH (pH 9.5) • 100 μl 5M Methanol (or 5M ethanol) • 5 μl 1M MgSO4 • 10 μl 50 mM NAD^+ • 10 μl sample • (10 μl E. coli act-pET21a lysate) • 775 μl H2O
The cuvets and reaction mixture without cell lysate were pre-incubated at 50° C. Formation of NADH was followed for 10 minutes at 340 nm at 50° C. The total activity was calculated by dividing the increase in absorption units per min by the extinction coefficient ([…]) and the total protein concentration in U/mg total protein. All assays were performed both by using methanol and ethanol as alternative substrates.

[5] = methanol 500 mM, read-out: Km, variable substrate NAD+

Row | Molecule | Vmax, variable substrate Methanol + Act ([1]; 20 μg MDH + 20 μg Act) [U/mg] | Vmax, variable substrate Methanol [1] [U/mg] | Km [1, 5] [µM] | change of Km,MeOH in the presence of Act (in words) ([1]; Act added vs. no Act) | Vmax, variable substrate Formaldehyde [2] [U/mg] | Km [2] [µM] | In vitro activity ([3]; 37° C., +Act) [mU/mg] | In vitro activity ([3]; 37° C., −Act) [mU/mg] | In vitro activity ([3]; 45° C., +Act) [mU/mg] | In vitro activity ([3]; 45° C., −Act) [mU/mg] | methanol dehydrogenase activity on expression in B. subtilis (in words) [4] | Km ([1]; 20 μg MDH + 20 μg Act, read-out: Km, variable substrate Methanol + Act) [µM] | reduction of Km,MeOH in the presence of Act ([1]; Act added vs. no Act) [fold] | ranking of activity in B. subtilis ([4]; Act supplied from E. coli lysates) | ranking of Mdh activity on expression in E. coli [3] | ranking of Mdh activity on expression in E. coli ([3]; listed as MGA3-Mdh2) | ranking of activity in B. subtilis ([4]; act and mdh gene co-expressed from the same plasmid)
1 | B1 | 0.45 | 0.09 | 40 | remained essentially the same | 5 | 15000 | 327 | 21 | 867 | 113 | expressed active methanol dehydrogenases | – | – | – | – | – | –
2 | B2 | 0.5 | 0.08 | 14 | – | 1.4 | 1000 | 464 | 48 | 1260 | 251 | expressed active methanol dehydrogenases | 12000 | 17 | most active | – | – | –
3 | B3 | 0.15 | 0.04 | 22 | remained essentially the same | 1.5 | 5000 | 672 | 59 | 1910 | 310 | expressed active methanol dehydrogenases | – | – | – | gave the best results | overall highest activities both in vitro and in vivo | most active
